The target of assay [1] is T1, His-tagged lamin A/C 1-300 fragment, Y45C (human), P02545.
T1 chain: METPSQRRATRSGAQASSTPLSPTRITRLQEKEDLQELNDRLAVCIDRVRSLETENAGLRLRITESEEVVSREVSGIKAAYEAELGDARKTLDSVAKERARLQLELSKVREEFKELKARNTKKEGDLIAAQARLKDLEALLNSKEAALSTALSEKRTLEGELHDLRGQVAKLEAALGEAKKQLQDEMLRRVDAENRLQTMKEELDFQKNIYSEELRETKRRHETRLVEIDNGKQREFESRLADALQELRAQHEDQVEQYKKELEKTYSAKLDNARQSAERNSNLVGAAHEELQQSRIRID
Briefly: ITC. The conditions noted are these: remark: other sources report otherwise.

In assay [2] the target is T2, His-tagged lamin A/C 1-300 fragment, L59R (human, UniProt P02545 1-300, L59R).
T2 sequence (looked up): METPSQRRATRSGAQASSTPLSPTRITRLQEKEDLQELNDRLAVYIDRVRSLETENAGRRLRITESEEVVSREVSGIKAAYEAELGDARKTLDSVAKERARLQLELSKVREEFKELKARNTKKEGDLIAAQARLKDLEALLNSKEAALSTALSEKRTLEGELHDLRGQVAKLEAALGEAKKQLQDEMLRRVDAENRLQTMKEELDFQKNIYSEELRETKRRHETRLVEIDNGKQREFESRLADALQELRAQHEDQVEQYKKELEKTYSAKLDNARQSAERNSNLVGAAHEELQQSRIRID
Description: ITC.

Assay [3] deals with T3, His-tagged lamin A/C 1-300 fragment, L35V (human, UniProt P02545 1-300, L35V).
T3 sequence (looked up): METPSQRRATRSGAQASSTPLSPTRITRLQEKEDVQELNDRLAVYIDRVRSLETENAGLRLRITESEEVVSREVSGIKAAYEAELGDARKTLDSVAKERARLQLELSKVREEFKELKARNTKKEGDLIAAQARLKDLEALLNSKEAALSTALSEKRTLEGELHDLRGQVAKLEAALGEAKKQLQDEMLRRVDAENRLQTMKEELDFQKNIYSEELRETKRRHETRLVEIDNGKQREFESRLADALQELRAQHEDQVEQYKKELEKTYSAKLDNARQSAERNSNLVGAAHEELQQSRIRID
Briefly: ITC.

The target of assay [4] is T4, His-tagged lamin A/C 1-300 fragment, I63S (human, UniProt P02545 1-300, I63S).
T4 sequence (looked up): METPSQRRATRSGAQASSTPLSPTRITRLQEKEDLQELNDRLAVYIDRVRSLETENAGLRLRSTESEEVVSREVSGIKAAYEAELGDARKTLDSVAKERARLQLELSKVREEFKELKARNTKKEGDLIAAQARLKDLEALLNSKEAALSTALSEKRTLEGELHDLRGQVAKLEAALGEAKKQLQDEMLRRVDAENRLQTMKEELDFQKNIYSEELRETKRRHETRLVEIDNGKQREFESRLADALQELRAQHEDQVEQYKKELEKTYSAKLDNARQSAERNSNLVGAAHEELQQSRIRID
Description: ITC.

Assay [5] has as its target T5, His-tagged lamin A/C 1-300 fragment, wild type (human, UniProt P02545 1-300).
T5 sequence (looked up): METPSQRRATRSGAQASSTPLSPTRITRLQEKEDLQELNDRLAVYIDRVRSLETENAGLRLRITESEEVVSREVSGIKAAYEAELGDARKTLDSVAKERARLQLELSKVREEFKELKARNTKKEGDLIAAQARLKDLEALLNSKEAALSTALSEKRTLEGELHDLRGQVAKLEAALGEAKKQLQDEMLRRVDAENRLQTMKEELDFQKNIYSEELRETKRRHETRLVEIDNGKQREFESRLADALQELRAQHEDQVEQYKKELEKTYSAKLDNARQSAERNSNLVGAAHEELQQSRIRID
Briefly: pull-down.

B1: lamin A/C 250-400 fragment (C-terminal part of coil 2), wild type, tag-free (domain or fragment, human, UniProt P02545 250-400, looked up)
chain: AQHEDQVEQYKKELEKTYSAKLDNARQSAERNSNLVGAAHEELQQSRIRIDSLSAQLSQLQKQLAAKEAKLRDLEDSLARERDTSRRLLAEKEREMAEMRARMQQQLDEYQELLDIKLALDMEIHAYRKLLEGEEERLRLSPSPTSQRSRG
Regarding B1, the fold decrease of the eA22 interaction against wild type (from KD) in assay [1] was 5 fold; in assay [3] it was ~2 fold. The entries for the “fold increase of the eA22 interaction against wild type (from KD)” value in assay [2] and in assay [4] were ~56 fold and ~2 fold, respectively. Besides, in assay [5], the binding result is reported as “binds”.

(Values after article doi:10.1101/2020.09.29.317933 (bioRxiv, 2020).)
